Variants at the floor of the assay were thinned out.
How the values were obtained:
[1] = test system: biotinyl-Trp-oxazolone; experiment: self-aminoacylation, catalytic enhancement (BWO) (fold over background); higher = more active; k-Seq, kA / k0A0; sequences stand for … in GGGAAUGGAUCCACAUCUACGAAUUC…UUCACUGCAGACUUGACGAAGCUG
How it was run: (§1)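 Mutagenized RNA pools with a 21-nt variable region (0.43 μM) were reacted with each biotinyl-aminoacyl-oxazolone at 2–1250 μM for 90 minutes at room temperature, in 50 μL HEPES/NaCl/KCl/MgCl2/CaCl2 buffer containing 5% acetonitrile at pH 6.9–7.0. RNA captured on streptavidin was quantified by triplicate qPCR and by Illumina sequencing. The fraction reacted for each sequence was fit to a pseudo-first-order model with bootstrapping, and catalytic enhancement is the median kA divided by the uncatalyzed rate, taken as the low-activity peak of a bimodal Gaussian fit.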

[2] = test system: biotinyl-Phe-oxazolone; experiment: self-aminoacylation, catalytic enhancement (BFO) (fold over background); higher = more active; k-Seq, kA / k0A0; sequences stand for … in GGGAAUGGAUCCACAUCUACGAAUUC…UUCACUGCAGACUUGACGAAGCUG
How it was run: as §1

[3] = test system: biotinyl-Val-oxazolone; experiment: self-aminoacylation, catalytic enhancement (BVO) (fold over background); higher = more active; k-Seq, kA / k0A0; sequences stand for … in GGGAAUGGAUCCACAUCUACGAAUUC…UUCACUGCAGACUUGACGAAGCUG
How it was run: as §1

[4] = test system: biotinyl-Met-oxazolone; experiment: self-aminoacylation, catalytic enhancement (BMO) (fold over background); higher = more active; k-Seq, kA / k0A0; sequences stand for … in GGGAAUGGAUCCACAUCUACGAAUUC…UUCACUGCAGACUUGACGAAGCUG
How it was run: as §1

[5] = test system: biotinyl-Ile-oxazolone; experiment: self-aminoacylation, catalytic enhancement (BIO) (fold over background); higher = more active; k-Seq, kA / k0A0; sequences stand for … in GGGAAUGGAUCCACAUCUACGAAUUC…UUCACUGCAGACUUGACGAAGCUG
How it was run: as §1

[6] = test system: biotinyl-Leu-oxazolone; experiment: self-aminoacylation, catalytic enhancement (BLO) (fold over background); higher = more active; k-Seq, kA / k0A0; sequences stand for … in GGGAAUGGAUCCACAUCUACGAAUUC…UUCACUGCAGACUUGACGAAGCUG
How it was run: as §1

Sequence | self-aminoacylation [1] | self-aminoacylation [2] | self-aminoacylation [3] | self-aminoacylation [4] | self-aminoacylation [5] | self-aminoacylation [6]
UAGUUUGCUAAUAGUCGCAAC [Fam3.1 aminoacylation ribozyme variant] | 1.34 | 1.43 | 1.31 | 1.18 | 1.25 | 1.06
AUUGCCCUGGUCAUCAAGUGA [Fam2.1 aminoacylation ribozyme variant] | 2.85 | 5.6 | 1.65 | 2.36 | 1.39 | 2.05
AUUACACUGGUCAUCGAAUGA [Fam2.1 aminoacylation ribozyme variant] | 1.15 | 0.652 | 1.25 | 0.931 | 1.12 | 0.978
CUAAUUUAAACAAUCGGUCUG [Fam1A.1 aminoacylation ribozyme variant] | 0.6 | 0.662 | 0.872 | 0.866 | 0.9 | 0.791
AUUACCCUGGUCAUAGAGUAA [Fam2.1 aminoacylation ribozyme variant] | 0.757 | 0.983 | 1.29 | 1.17 | 1.44 | 1.37
AUUGCCCUGGUCAUCGAGUCA [Fam2.1 aminoacylation ribozyme variant] | 0.652 | 0.963 | 0.894 | 0.817 | 0.957 | 0.777
AGUUUUGCUAAUAGUCGCAAG [Fam3.1 aminoacylation ribozyme variant] | 3.48 | 4.55 | 2.1 | 2.35 | 2.4 | 2.61
AUUGACCUAGGCCAUCGGGUG [Fam2.2 aminoacylation ribozyme variant] | 6.22 | 39.3 | 4.27 | 4.78 | 3.65 | 5.7
AUUACCCUGGACAGCGAGUGA [Fam2.1 aminoacylation ribozyme variant] | 2.52 | 10.9 | 2.12 | 3.3 | 2.24 | 4.19
AUUACCCUGGUCAUUGUGUGA [Fam2.1 aminoacylation ribozyme variant] | 3.23 | 8.81 | 1.49 | 2.59 | 1.46 | 2.23
AUUACCCUGGUGAUCGAGCGA [Fam2.1 aminoacylation ribozyme variant] | 1.82 | 5 | 1.95 | 1.76 | 2.06 | 1.93
CUAACUCAAACAAUCGGUCUG [Fam1A.1 aminoacylation ribozyme variant] | 1.24 | 3.32 | 0.742 | 0.648 | 0.761 | 0.716
AUGACCCUGUUCAUCGAGUGA [Fam2.1 aminoacylation ribozyme variant] | 6.05 | 17.7 | 3.03 | 4.75 | 3.16 | 5.72
CCACACUUCAAGCAAUCGUAC [Fam1B.1 aminoacylation ribozyme variant] | 0.546 | 1.29 | 0.669 | 0.351 | 0.473 | 0.58
AUUACCCCGGUGAUCGAGUGA [Fam2.1 aminoacylation ribozyme variant] | 4.35 | 21.5 | 2.23 | 3.73 | 2.23 | 3.33
AUUACCUUGGUCAUCGAGCGA [Fam2.1 aminoacylation ribozyme variant] | 1.57 | 1.02 | 1.83 | 1.5 | 1.55 | 1.74
AUACUUCAAACAAUCGGUUUG [Fam1A.1 aminoacylation ribozyme variant] | 9.98 | 12.9 | 1.06 | 0.91 | 1.05 | 1.14
CUCCUUCACACAAUCGGUCUG [Fam1A.1 aminoacylation ribozyme variant] | 0.895 | 1.55 | 0.985 | 0.799 | 0.907 | 0.686
AAUACCCUGGUCAUCGAGUAA [Fam2.1 aminoacylation ribozyme variant] | 1.32 | 3.36 | 1.54 | 1.51 | 1.41 | 1.93
CCACACUUCAAACAGUCGGUC [Fam1B.1 aminoacylation ribozyme variant] | 0.848 | 1.09 | 0.945 | 0.735 | 0.75 | 0.622
UAGUUUGCUAAUAGUCGCAAU [Fam3.1 aminoacylation ribozyme variant] | 1.88 | 3.04 | 1.61 | 1.38 | 1.52 | 1.28
AAGUUUGCUAUUCGUCGCAAG [Fam3.1 aminoacylation ribozyme variant] | 0.872 | 0.857 | 0.862 | 1.23 | 0.985 | 0.902
CCAUCCUUCAAGCAAUCGGUC [Fam1B.1 aminoacylation ribozyme variant] | 9.38 | 16.4 | 1.19 | 1.15 | 1.13 | 1.3
CCAUACUUCAAGCAACCGGUC [Fam1B.1 aminoacylation ribozyme variant] | 0.794 | 1.06 | 1 | 0.74 | 1.06 | 0.894
AUUCGCCUAGGUCAUUGGGUG [Fam2.2 aminoacylation ribozyme variant] | 4.29 | 23.2 | 3.23 | 4.27 | 3.14 | 5.43
AUUACCCUUGUGAUCGAGUGA [Fam2.1 aminoacylation ribozyme variant] | 9.16 | 50.1 | 3.53 | 7.15 | 3.2 | 7.77

Sequence | self-aminoacylation [1] | self-aminoacylation [2] | self-aminoacylation [3] | self-aminoacylation [4] | self-aminoacylation [5] | self-aminoacylation [6]
CCACAAUUCAAGCAAUCGGUU [Fam1B.1 aminoacylation ribozyme variant] | 1.55 | 1.16 | 1.65 | 1.76 | 1.68 | 1.39
CUACUUCAAACAAGCAGUCUG [Fam1A.1 aminoacylation ribozyme variant] | 0.577 | 1.06 | 0.775 | 0.751 | 0.882 | 0.794
AUUCAACUAGCUCAUCGGGUG [Fam2.2 aminoacylation ribozyme variant] | 1.82 | 15 | 2.45 | 1.74 | 2.04 | 2
AAGUUGGCUAAUAGUCGCAUG [Fam3.1 aminoacylation ribozyme variant] | 2 | 1.69 | 1.51 | 1.88 | 1.77 | 2.19
AUACACUUAGGUCAUCGGGUG [Fam2.2 aminoacylation ribozyme variant] | 5.82 | 36.6 | 3.3 | 5.5 | 3.82 | 6.18
AUUACCCUCGUCAUCAAGUGA [Fam2.1 aminoacylation ribozyme variant] | 4.2 | 6.71 | 2.19 | 2.96 | 1.92 | 2.87
AUUACCCGGGUCAUCGCGUGA [Fam2.1 aminoacylation ribozyme variant] | 27.8 | 178 | 15.6 | 25.4 | 12 | 28.3
AUUACCCGGGUCAUCGACUGA [Fam2.1 aminoacylation ribozyme variant] | 0.755 | 0.62 | 0.837 | 0.768 | 0.845 | 0.675
AUACAUCUAGGUCAUCGGGUG [Fam2.2 aminoacylation ribozyme variant] | 5.51 | 24.4 | 2.85 | 4.39 | 3.19 | 4.8
AUGUUUGCUAAUAGUAGCAAG [Fam3.1 aminoacylation ribozyme variant] | 0.911 | 1.67 | 1.36 | 1.34 | 1.29 | 0.912
AUUAGCCUGGCCAUCGAGUGA [Fam2.1 aminoacylation ribozyme variant] | 6.06 | 26.4 | 3.54 | 5.44 | 3.83 | 4.51
CCACACUUCAAGCAACUGGUC [Fam1B.1 aminoacylation ribozyme variant] | 0.338 | 0.699 | 0.616 | 0.52 | 0.57 | 0.505
CCACACUCCAUGCAAUCGGUC [Fam1B.1 aminoacylation ribozyme variant] | 0.663 | 0.866 | 1.05 | 0.676 | 0.982 | 0.901
CCACACUUGCAGCAAUCGGUC [Fam1B.1 aminoacylation ribozyme variant] | 1.23 | 1.07 | 1.64 | 1.2 | 1.63 | 1.33
AUUACCCAGGGCAUCGAGUGA [Fam2.1 aminoacylation ribozyme variant] | 6.92 | 21.4 | 3.57 | 6.06 | 3.27 | 6.33
GCACAGUUCAAGCAAUCGGUC [Fam1B.1 aminoacylation ribozyme variant] | 4.48 | 4.42 | 2.07 | 1.98 | 2.44 | 2.04
AUUCACCUAGGUCGUCGGGUA [Fam2.2 aminoacylation ribozyme variant] | 1.95 | 6.61 | 1.95 | 2.24 | 1.85 | 2.71
AAUACCCUGGUCAUCGCGUGA [Fam2.1 aminoacylation ribozyme variant] | 16.1 | 118 | 8.98 | 16.9 | 7.23 | 15.7
CUACUUCAAACAUUCGGUCCG [Fam1A.1 aminoacylation ribozyme variant] | 1.52 | 0.323 | 0.884 | 0.978 | 0.823 | 0.959
AUUCACCAUGGUCAUCGGGUG [Fam2.2 aminoacylation ribozyme variant] | 10.5 | 69.7 | 6.37 | 10.3 | 6.21 | 15.6
UUUACCCUGGCCAUCGAGUGA [Fam2.1 aminoacylation ribozyme variant] | 5.04 | 16.7 | 2.52 | 3.22 | 2.06 | 3.97
AAGGUUGCUAAGAGUCGCAAG [Fam3.1 aminoacylation ribozyme variant] | 1.57 | 1.9 | 1.03 | 0.884 | 1.17 | 1.1
AUUAACCAGGUCAUCGAGUGA [Fam2.1 aminoacylation ribozyme variant] | 6.86 | 22.2 | 2.8 | 5.17 | 3.17 | 5.32
CCACACGUCAAGCAUUCGGUC [Fam1B.1 aminoacylation ribozyme variant] | 2.16 | 5.03 | 3.21 | 2.23 | 2.03 | 1.71
CUACUUCAAACAAUCAAUCUG [Fam1A.1 aminoacylation ribozyme variant] | 0.669 | 1.73 | 0.767 | 0.683 | 0.794 | 0.602
